B1: Complement factor H (Homo sapiens), P08603 (parent)
chain: MRLLAKIICLMLWAICVAEDCNELPPRRNTEILTGSWSDQTYPEGTQAIYKCRPGYRSLGNVIMVCRKGEWVALNPLRKCQKRPCGHPGDTPFGTFTLTGGNVFEYGVKAVYTCNEGYQLLGEINYRECDTDGWTNDIPICEVVKCLPVTAPENGKIVSSAMEPDREYHFGQAVRFVCNSGYKIEGDEEMHCSDDGFWSKEKPKCVEISCKSPDVINGSPISQKIIYKENERFQYKCNMGYEYSERGDAVCTESGWRPLPSCEEKSCDNPYIPNGDYSPLRIKHRTGDEITYQCRNGFYPATRGNTAKCTSTGWIPAPRCTLKPCDYPDIKHGGLYHENMRRPYFPVAVGKYYSYYCDEHFETPSGSYWDHIHCTQDGWSPAVPCLRKCYFPYLENGYNQNYGRKFVQGKSIDVACHPGYALPKAQTTVTCMENGWSPTPRCIRVKTCSKSSIDIENGFISESQYTYALKEKAKYQCKLGYVTADGETSGSITCGKDGWSAQPTCIKSCDIPVFMNARTKNDFTWFKLNDTLDYECHDGYESNTGSTTGSIVCGYNGWSDLPICYERECELPKIDVHLVPDRKKDQYKVGEVLKFSCKPGFTIVGPNSVQCYHFGLSPDLPICKEQVQSCGPPPELLNGNVKEKTKEEYGHSEVVEYYCNPRFLMKGPNKIQCVDGEWTTLPVCIVEESTCGDIPELEHGWAQLSSPPYYYGDSVEFNCSESFTMIGHRSITCIHGVWTQLPQCVAIDKLKKCKSSNLIILEEHLKNKKEFDHNSNIRYRCRGKEGWIHTVCINGRWDPEVNCSMAQIQLCPPPPQIPNSHNMTTTLNYRDGEKVSVLCQENYLIQEGEEITCKDGRWQSIPLCVEKIPCSQPPQIEHGTINSSRSSQESYAHGTKLSYTCEGGFRISEENETTCYMGKWSSPPQCEGLPCKSPPEISHGVVAHMSDSYQYGEEVTYKCFEGFGIDGPAIAKCLGEKWSHPPSCIKTDCLSLPSFENAIPMGEKKDVYKAGEQVTYTCATYYKMDGASNVTCINSRWTGRPTCRDTSCVNPPTVQNAYIVSRQMSKYPSGERVRYQCRSPYEMFGDEEVMCLNGNWTEPPQCKDSTGKCGPPPPIDNGDITSFPLSVYAPASSVEYQCQNLYQLEGNKRITCRNGQWSEPPKCLHPCVISREIMENYNIALRWTAKQKLYSRTGESVEFVCKRGYRLSSRSHTLRTTCWDGKLEYPTCAKR

Variants of: B1
Details: with ptx3_human PTX3, P26022
Chain of ptx3_human PTX3, P26022 (P26022 whole entry): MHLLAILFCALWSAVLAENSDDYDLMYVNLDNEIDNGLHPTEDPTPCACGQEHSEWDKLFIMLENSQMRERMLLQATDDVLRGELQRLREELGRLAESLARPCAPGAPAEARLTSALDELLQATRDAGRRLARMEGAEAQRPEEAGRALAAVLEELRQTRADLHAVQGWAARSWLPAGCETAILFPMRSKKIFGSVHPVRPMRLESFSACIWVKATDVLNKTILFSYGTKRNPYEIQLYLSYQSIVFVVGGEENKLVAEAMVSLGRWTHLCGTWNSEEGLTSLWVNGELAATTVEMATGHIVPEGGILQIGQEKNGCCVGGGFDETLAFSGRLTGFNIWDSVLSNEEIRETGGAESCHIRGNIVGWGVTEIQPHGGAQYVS

Variant	effect of a mutation on the interaction
Y402H	with no effect

— IntAct's records for PubMed 19050261
